Assay results: PMC2581641 (Molecular microbiology, 2008)

How the values were obtained:
Test in all cases: two-hybrid
[1] = molecular target: T1, λCI-Rsd fusion protein with substitutions G14E and Y34F (E. coli, UniProt P0AFX4 1-158, G14E | Y34F)
T1 sequence (looked up): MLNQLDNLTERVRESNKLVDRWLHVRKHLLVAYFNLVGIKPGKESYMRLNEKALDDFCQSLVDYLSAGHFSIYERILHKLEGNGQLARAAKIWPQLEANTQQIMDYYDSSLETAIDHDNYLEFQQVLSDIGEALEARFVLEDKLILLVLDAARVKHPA

[2] = molecular target: T2, λCI-Rsd fusion protein with substitution Y34F (E. coli, UniProt P0AFX4 1-158, Y34F)
T2 sequence (looked up): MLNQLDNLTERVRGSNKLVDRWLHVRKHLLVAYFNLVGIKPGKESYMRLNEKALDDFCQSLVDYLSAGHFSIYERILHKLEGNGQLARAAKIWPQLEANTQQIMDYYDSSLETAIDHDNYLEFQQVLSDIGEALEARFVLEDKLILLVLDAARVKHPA

[3] = molecular target: T3, λCI-Rsd fusion protein with substitution G14E (E. coli, UniProt P0AFX4 1-158, G14E)
T3 sequence (looked up): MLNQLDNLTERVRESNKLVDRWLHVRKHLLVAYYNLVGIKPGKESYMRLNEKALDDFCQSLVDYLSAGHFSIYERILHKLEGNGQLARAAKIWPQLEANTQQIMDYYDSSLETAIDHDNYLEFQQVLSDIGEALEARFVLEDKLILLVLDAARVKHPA

λCI-AlgQ fusion protein = molecular target: T4, λCI-AlgQ fusion protein (P. aeruginosa, UniProt P15275 1-160)
T4 sequence (looked up): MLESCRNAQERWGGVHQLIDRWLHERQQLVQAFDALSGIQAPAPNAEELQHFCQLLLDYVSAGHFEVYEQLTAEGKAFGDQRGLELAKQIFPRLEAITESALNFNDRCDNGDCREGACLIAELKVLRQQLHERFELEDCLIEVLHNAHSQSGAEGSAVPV

| Binder | fold activation of lacZ transcription [1] | fold activation of lacZ transcription [2] | fold activation of lacZ transcription [3] | fold activation of lacZ transcription (λCI-AlgQ fusion protein) |
| --- | --- | --- | --- | --- |
| α-σ^70 region 2 fusion protein (domain or fragment, E. coli, UniProt P00579 94-448, looked up) TTDPVRMYMREMGTVELLTREGEIDIAKRIEDGINQVQCSVAEYPEAITYLLEQYDRVEAEEARLSDLITGFVDPNAEEDLAPTATHVGSELSQEDLDDDEDEDEEDGDDDSADDDNSIDPELAREKFAELRAQYVVTRDTIKAKGRSHATAQEEILKLSEVFKQFRLVPKQFDYLVNSMRVMMDRVRTQERLIMKLCVEQCKMPKKNFITLFTGNETSDTWFNAAIAMNKPWSEKLHDVSEEVHRALQKLQQIEEETGLTIEQVKDINRRMSIGEAKARRAKKEMVEANLRLVISIAKKYTNRGLQFLDLIQEGNIGLMKAVDKFEYRRGYKFSTYATWWIRQAITRSIADQAR | ~12 fold | ~9 fold | ~10 fold |  |
| α-Pa σ^70 region 2 fusion protein (domain or fragment, P. aeruginosa, UniProt P26480 96-450, looked up) TTDPVRMYMREMGTVELLTREGEIEIAKRIEEGIREVMSAIAQFPGTVDSILADYNRIVAEGGRLSDVLSGYIDPDDGSLPAEEVEPVNLKDDSADSKEKDDEEEESDDSSDSDDEGDGGPDPEEARLRFTAVSEQLDKAKKALKKHGRGSKQATAELTGLAELFMPIKLVPKQFDALVARVRSALEGVRAQERAIMQLCVRDARMPRADFLRLFPNHETDEKWVDSVLKSKPKYAEAIERLRDDILRNQQKLAALESEVELTVAEIKEINRAMSIGEAKARRAKKEMVEANLRLVISIAKKYTNRGLQFLDLIQEGNIGLMKAVDKFEYRRGYKFSTYATWWIRQAITRSIADQ |  |  |  | ~14 fold |
